Target: RVFV glycoprotein Gn head domain (154–469 aa) (Rift Valley fever virus) (UniProt P21401)
Experiment: BLI; […]; 300 s association, 300 s dissociation; […], global 1:1 model; Octet RED96

full-length LRP1 (low-density lipoprotein receptor-related protein 1), native, from porcine lung
Kd: 9.2 nM

Source: paper PMC12839305
